Data as given in article PMC7090385 (Cell Reports, 2020).

T1: SID2p peptide (APOL1 G332-L392, WT) (human)
T1 peptide: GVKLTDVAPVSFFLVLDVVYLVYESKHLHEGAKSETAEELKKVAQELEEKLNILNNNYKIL


Experiments:
[1] = target: recombinant NCS-1 (not myristoylated) (UniProt P62166 1-190, biotin (EZ-Link NHS-PEG4-biotin) where bound to the streptavidin sensor); assay: BLI
[2] = target: T1, SID2p peptide (APOL1 G332-L392, WT); assay: SPR

Chain of recombinant NCS-1 (not myristoylated) (P62166 whole entry): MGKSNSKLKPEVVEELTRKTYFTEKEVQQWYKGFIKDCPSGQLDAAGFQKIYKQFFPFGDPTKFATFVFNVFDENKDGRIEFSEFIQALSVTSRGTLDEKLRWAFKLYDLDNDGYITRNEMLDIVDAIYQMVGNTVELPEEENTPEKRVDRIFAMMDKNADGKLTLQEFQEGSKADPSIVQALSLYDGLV

Row | Kd [1] [nM] | binding result [2] | Binder
1 | 36.5 ± 2.6 |  | recombinant APOL3 (natural protein, biotin (EZ-Link NHS-PEG4-biotin), only where APOL3 was the bound partner (Figure 5A)) MDSEKKRFTEEATKYFRERVSPVHLQILLTNNEAWKRFVTAAELPRDEADALYEALKKLRTYAAIEDEYVQQKDEQFREWFLKEFPQVKRKIQESIEKLRALANGIEEVHRGCTISNVVSSSTGAASGIMSLAGLVLAPFTAGTSLALTAAGVGLGAASAVTGITTSIVEHSYTSSAEAEASRLTATSIDRLKVFKEVMRDITPNLLSLLNNYYEATQTIGSEIRAIRQARARARLPVTTWRISAGSGGQAERTIAGTTRAVSRGARILSATTSGIFLALDVVNLVYESKHLHEGAKSASAEELRRQAQELEENLMELTQIYQRLNPCHTH
2 |  | binds | LTDNEAWNGFVAAAELPRNEADELRKALDNLARQMIMK [LZ1p peptide (APOL1 L88-K125)]
